{"source": "the RNAGym collection of RNA variant scans (doi:10.7554/elife.80360)", "parents": {"B1": {"name": "HDV Ribozyme (parent)", "chain": "GGCCGGCAUGGUCCCAGCCUCCUCGCUGGCGCCGGCUGGGCAACAUUCCGAGGGGACCGUCCCCUCGGUAAUGGCGAAUGGGACCCA"}}}
{"variants_of": "B1", "experiment": "self-cleavage, relative activity (ratio to wild type); higher = more cleavage; co-transcriptional"}
{"variant": "G31A G52U", "self-cleavage": 0.531}
{"variant": "G31A G52C", "self-cleavage": 0.619}
{"variant": "C30U G68U", "self-cleavage": 0.594}
{"variant": "G31A A83G", "self-cleavage": 0.228}
{"variant": "G31A A83C", "self-cleavage": 0.0811}
{"variant": "G31A A83U", "self-cleavage": 0.178}
{"variant": "G31C G81C", "self-cleavage": 0.194}
{"variant": "G31C C75G", "self-cleavage": 0.0396}
{"variant": "G31U A71G", "self-cleavage": 0.271}
{"variant": "G31U A71C", "self-cleavage": 0.0369}
{"variant": "C30U C64U", "self-cleavage": 0.806}
{"variant": "G31A G39C", "self-cleavage": 0.182}
{"variant": "G31C A70G", "self-cleavage": 0.285}
{"variant": "G31U G52C", "self-cleavage": 0.35}
{"variant": "C30U U79C", "self-cleavage": 0.148}
{"variant": "C30G U65C", "self-cleavage": 0}
{"variant": "C30G U65G", "self-cleavage": 0.0346}
{"variant": "G31U G50C", "self-cleavage": 0.237}
{"variant": "G31U G74C", "self-cleavage": 0.223}
{"variant": "G31A A45G", "self-cleavage": 0.422}
{"variant": "G31U C57U", "self-cleavage": 0.383}
{"variant": "G31C U69A", "self-cleavage": 0.299}
{"variant": "G31A G80U", "self-cleavage": 0.104}
{"variant": "G31C G82C", "self-cleavage": 0.134}
{"variant": "G31A C85G", "self-cleavage": 0.367}
{"variant": "C30G U37C", "self-cleavage": 0}
{"variant": "G31C A78C", "self-cleavage": 0.0997}
{"variant": "C30U C85U", "self-cleavage": 0.787}
{"variant": "G31C C36G", "self-cleavage": 0}
{"variant": "G31C C36A", "self-cleavage": 0.0277}
{"variant": "G31C G34C", "self-cleavage": 0.0396}
{"variant": "C30G U72G", "self-cleavage": 0.0923}
{"variant": "G31U G59C", "self-cleavage": 0.57}
{"variant": "G31U C66G", "self-cleavage": 0.266}
{"variant": "C30U C66A", "self-cleavage": 0.684}
{"variant": "C30G U79G", "self-cleavage": 0.128}
{"variant": "G31C A83C", "self-cleavage": 0.185}
{"variant": "G31C G53C", "self-cleavage": 0.332}
{"variant": "G31A G67U", "self-cleavage": 0.439}
{"variant": "G31U C58A", "self-cleavage": 0.35}
{"variant": "G31C C49A", "self-cleavage": 0.415}
{"variant": "C30U G73U", "self-cleavage": 0.153}
{"variant": "C30U C57A", "self-cleavage": 0.787}
{"variant": "C30U C57U", "self-cleavage": 0.932}
{"variant": "G31C A56G", "self-cleavage": 0.166}
{"variant": "G31A C49G", "self-cleavage": 0.34}
{"variant": "C30U U60G", "self-cleavage": 0.443}
{"variant": "C30U C58A", "self-cleavage": 0.697}
{"variant": "C30U C58G", "self-cleavage": 0.569}
{"variant": "G31C G59U", "self-cleavage": 0.252}
{"variant": "C30U A51U", "self-cleavage": 0.791}
{"variant": "G31A G55A", "self-cleavage": 0.376}
{"variant": "G31A U79C", "self-cleavage": 0.11}
{"variant": "G31A U79G", "self-cleavage": 0.266}
{"variant": "G31U A56G", "self-cleavage": 0.386}
{"variant": "G31C C48A", "self-cleavage": 0.449}
{"variant": "C30G U47C", "self-cleavage": 0.0941}
{"variant": "C30G U47A", "self-cleavage": 0.0354}
{"variant": "G31A U46A", "self-cleavage": 0.108}
{"variant": "G31A G68A", "self-cleavage": 0.481}
{"variant": "G31A G68U", "self-cleavage": 0.463}
{"variant": "C30G U60A", "self-cleavage": 0.154}
{"variant": "C30U G55A", "self-cleavage": 0.691}
{"variant": "C30U G50U", "self-cleavage": 0.645}
{"variant": "C30U G50C", "self-cleavage": 0.677}
{"variant": "G31C C62A", "self-cleavage": 0.181}
{"variant": "G31C C62G", "self-cleavage": 0.166}
{"variant": "G31U C36U", "self-cleavage": 0.0702}
{"variant": "C30U A77G", "self-cleavage": 0.489}
{"variant": "C30U A77U", "self-cleavage": 0.215}
{"variant": "C30U A87C", "self-cleavage": 0.755}
{"variant": "G31A C63A", "self-cleavage": 0.379}
{"variant": "G31A C63G", "self-cleavage": 0.365}
{"variant": "C30G U46G", "self-cleavage": 0.0361}
{"variant": "C30G U46A", "self-cleavage": 0.0906}
{"variant": "G31A G82U", "self-cleavage": 0.0715}
{"variant": "G31A C36U", "self-cleavage": 0.241}
{"variant": "C30U A70G", "self-cleavage": 0.8}
{"variant": "G31C C84G", "self-cleavage": 0.193}
{"variant": "C30U G52C", "self-cleavage": 0.709}
{"variant": "C30U G52U", "self-cleavage": 0.709}
{"variant": "G31C C63G", "self-cleavage": 0.34}
{"variant": "G31U G34A", "self-cleavage": 0.0804}
{"variant": "G31C C61U", "self-cleavage": 0.262}
{"variant": "C30U C32U", "self-cleavage": 0.7}
{"variant": "G31U A70G", "self-cleavage": 0.48}
{"variant": "G31C U79A", "self-cleavage": 0.17}
{"variant": "C30U G67U", "self-cleavage": 0.75}
{"variant": "G31U G38U", "self-cleavage": 0.0944}
{"variant": "G31U A45G", "self-cleavage": 0.107}
{"variant": "G31U A45C", "self-cleavage": 0.119}
{"variant": "C30U C61G", "self-cleavage": 0.369}
{"variant": "C30U C61A", "self-cleavage": 0.718}
{"variant": "G31U A43G", "self-cleavage": 0.0475}
{"variant": "G31A G76C", "self-cleavage": 0.469}
{"variant": "G31A A70G", "self-cleavage": 0.4}
{"variant": "G31U C64A", "self-cleavage": 0.364}
{"variant": "G31U G67U", "self-cleavage": 0.297}
{"variant": "G31C G80C", "self-cleavage": 0.0615}
{"variant": "C30U G38A", "self-cleavage": 0.0773}
{"variant": "G31U A42C", "self-cleavage": 0.131}
{"variant": "G31U A42U", "self-cleavage": 0.104}
{"variant": "G31C A77U", "self-cleavage": 0.0489}
{"variant": "G31A U72A", "self-cleavage": 0.0292}
{"variant": "C30U C33A", "self-cleavage": 0.0268}
{"variant": "G31U G53C", "self-cleavage": 0.563}
{"variant": "C30U G80C", "self-cleavage": 0.208}
{"variant": "C30U G80U", "self-cleavage": 0.116}
{"variant": "C30U G80A", "self-cleavage": 0.227}
{"variant": "G31U G40A", "self-cleavage": 0.359}
{"variant": "G31A A42G", "self-cleavage": 0.116}
{"variant": "G31A A42C", "self-cleavage": 0.102}
{"variant": "G31A A42U", "self-cleavage": 0.107}
{"variant": "G31C G68A", "self-cleavage": 0.372}
{"variant": "G31U C61A", "self-cleavage": 0.38}
{"variant": "G31U C61U", "self-cleavage": 0.478}
{"variant": "G31C C44A", "self-cleavage": 0}
{"variant": "G31C U37A", "self-cleavage": 0.115}
{"variant": "C30U A56U", "self-cleavage": 0.782}
{"variant": "G31A C61G", "self-cleavage": 0.401}
{"variant": "G31A C58G", "self-cleavage": 0.393}
{"variant": "G31A C58A", "self-cleavage": 0.574}
{"variant": "G31A C57G", "self-cleavage": 0.529}
{"variant": "G31A C57A", "self-cleavage": 0.708}
{"variant": "G31C A71G", "self-cleavage": 0.253}
{"variant": "G31C A71U", "self-cleavage": 0.172}
{"variant": "G31C A71C", "self-cleavage": 0.0475}
{"variant": "G31C U65C", "self-cleavage": 0.361}
{"variant": "G31U C75G", "self-cleavage": 0.148}
{"variant": "G31U C75U", "self-cleavage": 0.0665}
{"variant": "G31U C44G", "self-cleavage": 0.0665}
{"variant": "G31C G54C", "self-cleavage": 0.193}
{"variant": "G31C G54A", "self-cleavage": 0.191}
{"variant": "G31C A42G", "self-cleavage": 0.0755}
{"variant": "G31A C32U", "self-cleavage": 0.315}
{"variant": "G31U G35A", "self-cleavage": 0.17}
{"variant": "C30G U69G", "self-cleavage": 0}
{"variant": "C30U G34A", "self-cleavage": 0.0875}
{"variant": "G31A A56C", "self-cleavage": 0.445}
{"variant": "G31A A77U", "self-cleavage": 0.0906}
{"variant": "C30U C75G", "self-cleavage": 0.0554}
{"variant": "G31U C32A", "self-cleavage": 0.111}
{"variant": "C30U G81A", "self-cleavage": 0.155}
{"variant": "G31C G50C", "self-cleavage": 0.511}
{"variant": "G31C A43G", "self-cleavage": 0.104}
{"variant": "C30U G54U", "self-cleavage": 0.597}
{"variant": "G31A C48U", "self-cleavage": 0.393}
{"variant": "G31A C48G", "self-cleavage": 0.456}
{"variant": "G31C C57U", "self-cleavage": 0.445}
{"variant": "G31C G67A", "self-cleavage": 0.402}
{"variant": "G31A G73C", "self-cleavage": 0.107}
{"variant": "G31A G73A", "self-cleavage": 0.234}
{"variant": "G31A G73U", "self-cleavage": 0.229}
{"variant": "C30U A71G", "self-cleavage": 0.633}
{"variant": "C30U C62A", "self-cleavage": 0.562}
{"variant": "C30U C44U", "self-cleavage": 0.289}
{"variant": "C30U C44A", "self-cleavage": 0.117}
{"variant": "C30U C44G", "self-cleavage": 0.135}
{"variant": "G31C U72G", "self-cleavage": 0.128}
{"variant": "G31U A77C", "self-cleavage": 0.0489}
{"variant": "G31C G52A", "self-cleavage": 0.234}
{"variant": "G31C G52U", "self-cleavage": 0.391}
{"variant": "G31C G76U", "self-cleavage": 0.463}
{"variant": "C30U G35A", "self-cleavage": 0.136}
{"variant": "G31A C64G", "self-cleavage": 0.408}
{"variant": "G31A C64U", "self-cleavage": 0.409}
{"variant": "G31A G74U", "self-cleavage": 0.134}
